Test results as given in EP4541814A1 (Cytiva BioProcess R&D AB, dated 2025).
Residue numbers refer to the chain shown, from its start.

B1: vh253 (SEQ ID NO:95) (VHH)
VHH: QVQLQQSGGGSVQAGGSLSLSCTISGRTLSDYTMGWFRQRPGKEREFVAAISWSGAYTKYADSVKGRFTISRDNAKNTVYLQMNSLKPEDTAVYYCAAGPTGLLSKKATPADYDYWGQGTQVTVSS
B2: vh255 (SEQ ID NO:99) (VHH)
VHH: B1 VHH with S19R, I24S
B3: vh118 (SEQ ID NO:80), Example 3 construct (VHH)
VHH: B1 VHH with S19R
B4: vh248 (SEQ ID NO:90) (VHH)
VHH: B1 VHH with Q5E, S19R
B5: vh251 (SEQ ID NO:93) (VHH)
VHH: B1 VHH with A14T, S19R
B6: vh252 (SEQ ID NO:94) (VHH)
VHH: B1 VHH with S19K
B7: vh247 (SEQ ID NO:89) (VHH)
VHH: B1 VHH with Q5V, S19R
B8: vh332 (SEQ ID NO:96) (VHH)
VHH: B1 VHH with S19R, T23V
B9: vh256 (SEQ ID NO:100) (VHH)
VHH: B1 VHH with S19R, I24V
B10: vh344 (SEQ ID NO:98) (VHH)
VHH: B1 VHH with S19R, T23A, V93I
B11: vh249 (SEQ ID NO:91) (VHH)
VHH: B1 VHH with Q6E, S19R
B12: vh254 (SEQ ID NO:97) (VHH)
VHH: B1 VHH with S19R, T23S
B13: vh250 (SEQ ID NO:92) (VHH)
VHH: B1 VHH with A14S, S19R
B14: vh346 (SEQ ID NO:114) (VHH)
VHH: B1 VHH with S19R, F47L, V93I
B15: vh345 (SEQ ID NO:104) (VHH)
VHH: B1 VHH with S19R, R40A, V93I
B16: vh325 (SEQ ID NO:113) (VHH)
VHH: B1 VHH with S19R, R45I
B17: vh266 (SEQ ID NO:112) (VHH)
VHH: B1 VHH with S19R, R45L
B18: Candidate 4A-3: vh118 fusion protein (SEQ ID NO:162) (VHH)
VHH: B1 VHH with S19R
B19: Candidate 4A-1: vh342 fusion protein (SEQ ID NO:163) (VHH)
VHH: B1 VHH with Q6E, S11L, A14P, S19R, T23A, I24A, R40A, E44Q, A61T, N77T
B20: Candidate 4A-2: vh343 fusion protein (SEQ ID NO:164) (VHH)
VHH: B1 VHH with Q1E, Q5V, Q6E, S11L, S19R, T23A, I24A, R40A, A49V, V79M
B21: vh428 (SEQ ID NO:146) fused to SEQ ID NO:160, Example 5 (VHH)
chain (part 1 of 2): B1 VHH with S19R, Y32F, G35A, K59Y, K106R, A108T, D114Q
chain (part 2 of 2): not shown
B22: vh118 (SEQ ID NO:80) fused to SEQ ID NO:160, Example 5 (VHH)
chain (part 1 of 2): B1 VHH with S19R
chain (part 2 of 2): not shown
B23: vh359 (SEQ ID NO:145) fused to SEQ ID NO:160, Example 5 (VHH)
chain (part 1 of 2): B1 VHH with Q5V, Q6E, Y32F, G35A, K59Y, A61T, N84Q, K106R, A108T, D114Q
chain (part 2 of 2): not shown
B24: vh374 (SEQ ID NO:144) fused to SEQ ID NO:160, Example 5 (VHH)
chain (part 1 of 2): QVQLQQSGGGSVQAGGSLRLSCTSSGRTLSDFTMAWFRQRPGRAREFVAAISWSGAYTYYTDSVKGRFTISRDNAKNTVFLQMQSLKPEDTAIYYCAAGPTGLLSRKTTPADYQYWGQGTQVTVSS
chain (part 2 of 2): not shown

molecular target: T1, AAV9 viral particles (adeno-associated virus 9); assay: SPR (Biacore), polypeptide amine-coupled to CM5, AAV9 analyte; response normalized to SEQ ID NO:80

First: B1
Second: B2
The “Normalized AAV9 binding capacity (%)” value of the first is lower: 86% for the first, 103% for the second.

Going from B3 to B4, the “Normalized AAV9 binding capacity (%)” value rises from 100% to 105%.

Going from B5 to B6, the “Normalized AAV9 binding capacity (%)” value falls from 99% to 92%.

Compared with B7, B8 is lower in “Normalized AAV9 binding capacity (%)” value: 106% for the first, 98% for the second.

Going from B9 to B10, the “Normalized AAV9 binding capacity (%)” value falls from 102% to 100%.

First: B11
Second: B12
The “Normalized AAV9 binding capacity (%)” value of the first is higher: 86% for the first, 73% for the second.

With B13 the “Normalized AAV9 binding capacity (%)” value was 96%.

molecular target: T1, AAV9 viral particles; assay: as above; remark: another data set of the same source

B3 and B14 are the same in “Normalized AAV9 binding capacity (%)” value: 100% for the first, 100% for the second.

Compared with B15, B16 is lower in “Normalized AAV9 binding capacity (%)” value: 101% for the first, 97% for the second.

B17 was tested, and the “Normalized AAV9 binding capacity (%)” value was 115%.

molecular target: T1, AAV9 viral particles; assay: as above; remark: another data set of the same source

B3 and B14 are the same in “Normalized AAV9 binding capacity (%)” value: 100% for the first, 100% for the second.

First: B15
Second: B10
The “Normalized AAV9 binding capacity (%)” value of the first is higher: 101% for the first, 100% for the second.

molecular target: T1, AAV9 viral particles; assay: SPR (Biacore 8K+), fusion protein amine-coupled to CM5, AAV9 2E12 vp/ml, report point late binding

Compared with B18, B19 is lower in “Binding capacity AAV9 (2E12 vp/ml) (RU)” value: 12400 RU for the first, 9920 RU for the second.

B20 was tested, and the “Binding capacity AAV9 (2E12 vp/ml) (RU)” value was 12400 RU.

molecular target: T1, AAV9 viral particles; assay: SPR (Biacore 8K+), fusion protein amine-coupled to CM5, AAV9 2E12 vp/ml; response normalized to vh118

Compared with B21, B22 is lower in “Normalized AAV9 binding capacity (%)” value: 108% for the first, 100% for the second.

Going from B23 to B24, the “Normalized AAV9 binding capacity (%)” value rises from 86.4% to 102%.
